For 2 molecules, koff, percent decrease in the uptake of FITC-E7p72 by EA.hy926 cells with 3x EGFL7 and Kd results are on record in article PMC5770569.

Experiment [1] has as its target Purified recombinant EGFL7 (Sino Biological Inc.) (human) (UniProt Q9UHF1). Description: SPR.
The target in experiment [2] is Fluorescein-labeled E7p72. Put plainly: flow cytometry on cells. For orientation: In flow cytometry, cells or beads pass a laser one at a time.
The target in experiment [3] is E7p72, re-synthesized with a Cys for the SPR chip. Put plainly: SPR. A general note: In SPR one partner is held on a chip, and binding of the other changes the refractive index at the surface.
Experiment [4] concerns the target E7p74, re-synthesized with a Cys for the SPR chip. Description: SPR.

“A647-CPMV-PEG viral nanoparticle (control)”: in experiment [1], the koff (in general, the first-order rate constant of dissociation) turned out to be 0.00124 s⁻¹.

B1: Purified EGFL7 (SPRimager II experiments and blocking study) (natural protein)
chain: YRPGRRVCAVRAHGDPVSESFVQRVYQPFLTTCDGHRACSTYRTIYRTAYRRSPGLAPARPRYACCPGWKRTSGLPGACGAAICQPPCRNGGSCVQPGRCRCPAGWRGDTCQSDVDECSARRGGCPQRCVNTAGSYWCQCWEGHSLSADGTLCVPKGGPPRVAPNPTGVDSAMKEEVQRLQSRVDLLEEKLQLVLAPLHSLASQALEHGLPDPGSLLVHSFQQLGRIDSLSEQISFLEEQLGSCSCKKDS
B1 yielded a percent decrease in the uptake of FITC-E7p72 by EA.hy926 cells with 3x EGFL7 in experiment [2] of 64.5%. For the same molecule, the figures for the Kd in experiment [3] and in experiment [4] were 13.2 nM and 14.3 nM, respectively.
